Reference: article PMC4929722

Columns and labels:
[1] = target: BTas-B (bovine foamy virus transactivator Tas of clone pBS-BFV-B, N108) (bovine foamy virus (BFV3026)); assay: cross-linking; lysates of transfected HEK293T cells (20 mM Tris-Cl pH 7.5, 150 mM EDTA, 0.5 mM Na3VO4, 1 % NP-40) mixed with 0.01 % glutaraldehyde in 20 mM triethanolamine pH 8.2, 10 mM NaCl, 30 min at room temperature; 12 % SDS-PAGE and immunoblot with anti-BTas
[2] = target: BTas-Y (bovine foamy virus transactivator Tas of clone pBS-BFV-Y, D108) (bovine foamy virus (BFV3026)); assay: as above

| Substance | stoichiometry N [1] | stoichiometry N [2] |
| --- | --- | --- |
| BTas-B (bovine foamy virus transactivator Tas of clone pBS-BFV-B, N108) (natural protein) | 2 |  |
| BTas-Y (bovine foamy virus transactivator Tas of clone pBS-BFV-Y, D108) (natural protein) |  | 2 |
